Numbering of substitutions follows the chain as printed. Numbers in names are those of the source.
Target: T1, PUF4 RNA-binding domain (Saccharomyces cerevisiae, UniProt P25339 537-888)
T1 sequence: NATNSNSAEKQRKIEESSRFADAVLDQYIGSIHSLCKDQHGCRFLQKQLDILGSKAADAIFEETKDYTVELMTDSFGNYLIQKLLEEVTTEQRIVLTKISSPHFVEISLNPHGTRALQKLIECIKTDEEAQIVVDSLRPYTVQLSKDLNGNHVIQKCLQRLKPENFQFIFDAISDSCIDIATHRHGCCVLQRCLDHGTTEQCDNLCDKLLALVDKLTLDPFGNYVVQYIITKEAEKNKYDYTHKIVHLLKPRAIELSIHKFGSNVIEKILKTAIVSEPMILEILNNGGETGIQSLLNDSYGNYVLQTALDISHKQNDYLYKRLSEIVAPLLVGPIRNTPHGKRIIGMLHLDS
Assay: Mg; RNA-MaP; 20 mM Na-HEPES pH 7.4, 30 mM KOAc, 0.75 mM MgCl2, 0.1% Tween-20, 5% glycerol, 0.1 mg/mL BSA, 2 mM DTT; 25 C; 0.0125-409.6 nM protein
Settings: tags: N-His6-TEV cleaved; C-SNAP kept, Cy3B-labelled; label: tethered on chip by stalled RNA polymerase

B1: Ib_S4_P5E.1_K5.1_C5.1_H5.1_[G2A]_[A4T]_A5.1_F5.1_T5.1 (ssRNA)
RNA: UUUGACAACUGAUCGUUCUUUCUUAUUUUAUUAUUCUUUCUCGAUCAGUUGUCUUU
Kd: 1440 nM

B2: Ib_S4_P5E.1_K5.1_C5.1_H5.1_A5.1_[T6A]_[A7G]_F5.1_T5.1 (ssRNA)
RNA: B1 RNA with A25G, U27A, U29A, A30G
Kd: 10.7 nM

B3: Ib_S4_P5E.1_K5.1_C5.1_H5.1_[T3C]_A5.1_[T5C]_F5.1_T5.1 (ssRNA)
RNA: B1 RNA with A25G, U26C, U27A, U28C
Kd: 204 nM

B4: Ib_S4_P5E.1_K5.1_C5.1_H5.1_A5.1_[T5A]_[A7T]_F5.1_T5.1 (ssRNA)
RNA: B1 RNA with A25G, U27A, U28A, A30U
Kd: 5.23 nM

B5: Ib_S4_P5E.1_K5.1_C5.1_H5.1_[T3G]_[A4T]_A5.1_F5.1_T5.1 (ssRNA)
RNA: B1 RNA with A25G, U26G
Kd: 745 nM

B6: Ib_S4_P5E.1_K5.1_C5.1_H5.1_[G2A]_A5.1_[T6A]_F5.1_T5.1 (ssRNA)
RNA: B1 RNA with U27A, U29A
Kd: 696 nM

B7: Ib_S4_P5E.1_K5.1_C5.1_H5.1_[T3C]_A5.1_[A7G]_F5.1_T5.1 (ssRNA)
RNA: B1 RNA with A25G, U26C, U27A, A30G
Kd: 1520 nM

B8: Ib_S4_P5E.1_K5.1_C5.1_H5.1_[T1C]_A5.1_[T6A]_F5.1_T5.1 (ssRNA)
RNA: B1 RNA with U24C, A25G, U27A, U29A
Kd: 1040 nM

B9: Ib_S4_P5E.1_K5.1_C5.1_H5.1_[G2C]_A5.1_[T6C]_F5.1_T5.1 (ssRNA)
RNA: B1 RNA with A25C, U27A, U29C
Kd: 1940 nM

B10: Ib_S4_P5E.1_K5.1_C5.1_H5.1_[T3C]_A5.1_[A7C]_F5.1_T5.1 (ssRNA)
RNA: B1 RNA with A25G, U26C, U27A, A30C
Kd: 1630 nM

B11: Ib_S4_P5E.1_K5.1_C5.1_H5.1_[T1C]_A5.1_[A7T]_F5.1_T5.1 (ssRNA)
RNA: B1 RNA with U24C, A25G, U27A, A30U
Kd: 370 nM

B12: Ib_S4_P5E.1_K5.1_C5.1_H5.1_A5.1_[T6C]_[A7C]_F5.1_T5.1 (ssRNA)
RNA: B1 RNA with A25G, U27A, U29C, A30C
Kd: 4.55 nM

B13: Ib_S4_P5E.1_K5.1_C5.1_H5.1_[T3C]_A5.1_[A7T]_F5.1_T5.1 (ssRNA)
RNA: B1 RNA with A25G, U26C, U27A, A30U
Kd: 414 nM

B14: Ib_S4_P5E.1_K5.1_C5.1_H5.1_[T3C]_[A4T]_A5.1_F5.1_T5.1 (ssRNA)
RNA: B1 RNA with A25G, U26C
Kd: 453 nM

B15: Ib_S4_P5E.1_K5.1_C5.1_H5.1_[A4C]_A5.1_[T5C]_F5.1_T5.1 (ssRNA)
RNA: B1 RNA with A25G, U27C, U28C
Kd: 19.9 nM

B16: Ib_S4_P5E.1_K5.1_C5.1_H5.1_[G2C]_A5.1_[T5A]_F5.1_T5.1 (ssRNA)
RNA: B1 RNA with A25C, U27A, U28A
Kd: > 2300 nM

B17: Ib_S4_P5E.1_K5.1_C5.1_H5.1_[T1C]_A5.1_[A7G]_F5.1_T5.1 (ssRNA)
RNA: B1 RNA with U24C, A25G, U27A, A30G
Kd: 2200 nM

B18: Ib_S4_P5E.1_K5.1_C5.1_H5.1_[G2C]_A5.1_[T6A]_F5.1_T5.1 (ssRNA)
RNA: B1 RNA with A25C, U27A, U29A
Kd: > 2300 nM

B19: Ib_S4_P5E.1_K5.1_C5.1_H5.1_[G2T]_A5.1_[T5C]_F5.1_T5.1 (ssRNA)
RNA: B1 RNA with A25U, U27A, U28C
Kd: > 2300 nM

B20: Ib_S4_P5E.1_K5.1_C5.1_H5.1_[A4T]_A5.1_[T6A]_F5.1_T5.1 (ssRNA)
RNA: B1 RNA with A25G, U29A
Kd: 16 nM

B21: Ib_S4_P5E.1_K5.1_C5.1_H5.1_A5.1_[T6A]_[A7C]_F5.1_T5.1 (ssRNA)
RNA: B1 RNA with A25G, U27A, U29A, A30C
Kd: 2.42 nM

B22: Ib_S4_P5E.1_K5.1_C5.1_H5.1_[T3G]_[A4C]_A5.1_F5.1_T5.1 (ssRNA)
RNA: B1 RNA with A25G, U26G, U27C
Kd: 1880 nM

B23: Ib_S4_P5E.1_K5.1_C5.1_H5.1_[T1C]_A5.1_[T5G]_F5.1_T5.1 (ssRNA)
RNA: B1 RNA with U24C, A25G, U27A, U28G
Kd: > 2300 nM

B24: Ib_S4_P5E.1_K5.1_C5.1_H5.1_[T3C]_[A4C]_A5.1_F5.1_T5.1 (ssRNA)
RNA: B1 RNA with A25G, U26C, U27C
Kd: 862 nM

B25: Ib_S4_P5E.1_K5.1_C5.1_H5.1_[G2A]_A5.1_[T5G]_F5.1_T5.1 (ssRNA)
RNA: B1 RNA with U27A, U28G
Kd: 1940 nM

B26: Ib_S4_P5E.1_K5.1_C5.1_H5.1_[T1A]_A5.1_[T6C]_F5.1_T5.1 (ssRNA)
RNA: B1 RNA with U24A, A25G, U27A, U29C
Kd: > 2300 nM

B27: Ib_S4_P5E.1_K5.1_C5.1_H5.1_A5.1_[T5C]_[A7T]_F5.1_T5.1 (ssRNA)
RNA: B1 RNA with A25G, U27A, U28C, A30U
Kd: 1.71 nM

B28: Ib_S4_P5E.1_K5.1_C5.1_H5.1_[A4C]_A5.1_[A7C]_F5.1_T5.1 (ssRNA)
RNA: B1 RNA with A25G, U27C, A30C
Kd: 83.8 nM

B29: Ib_S4_P5E.1_K5.1_C5.1_H5.1_[G2T]_A5.1_[A7C]_F5.1_T5.1 (ssRNA)
RNA: B1 RNA with A25U, U27A, A30C
Kd: > 2300 nM

B30: Ie_S4_P4E.1_K4.1_C4.1_H4.1_[+3C]_A4.1_F4.1_T4.1 (ssRNA)
RNA: B1 RNA with A25G, U27C, U28A
Kd: 5.86 nM

B31: Ib_S4_P5E.1_K5.1_C5.1_H5.1_[G2A]_A5.1_[A7G]_F5.1_T5.1 (ssRNA)
RNA: B1 RNA with U27A, A30G
Kd: 904 nM

B32: Ia_S4_P5E.1_K5.1_C5.1_H5.1_A5.1_F5.1_[T8A]_T5.1 (ssRNA)
RNA: B1 RNA with A25G, U27A, U31A
Kd: 6.15 nM

B33: Ib_S4_P5E.1_K5.1_C5.1_H5.1_A5.1_[T5C]_[T6A]_F5.1_T5.1 (ssRNA)
RNA: B1 RNA with A25G, U27A, U28C, U29A
Kd: 3.97 nM

B34: Ib_S4_P5E.1_K5.1_C5.1_H5.1_[T1C]_A5.1_[T6C]_F5.1_T5.1 (ssRNA)
RNA: B1 RNA with U24C, A25G, U27A, U29C
Kd: 637 nM

B35: Ib_S4_P5E.1_K5.1_C5.1_H5.1_A5.1_[T5A]_[A7G]_F5.1_T5.1 (ssRNA)
RNA: B1 RNA with A25G, U27A, U28A, A30G
Kd: 15.3 nM

B36: Ic_S4_P5E.1_K5.1_C5.1_H5.1_A5.1_[T6G]_[A7C]_F5.1_T5.1 (ssRNA)
RNA: B1 RNA with A25G, U27A, U29G, A30C
Kd: 12.5 nM

B37: Ie_S4_P4E.1_K4.1_C4.1_H4.1_[+3T]_A4.1_F4.1_T4.1 (ssRNA)
RNA: B1 RNA with A25G, U28A
Kd: 5.86 nM

B38: Ib_S4_P5E.1_K5.1_C5.1_H5.1_[T3C]_A5.1_[T5A]_F5.1_T5.1 (ssRNA)
RNA: B1 RNA with A25G, U26C, U27A, U28A
Kd: 872 nM

B39: Ib_S4_P5E.1_K5.1_C5.1_H5.1_A5.1_[T5C]_[T6C]_F5.1_T5.1 (ssRNA)
RNA: B1 RNA with A25G, U27A, U28C, U29C
Kd: 1.7 nM

B40: Ib_S4_P5E.1_K5.1_C5.1_H5.1_[A4C]_A5.1_[T5G]_F5.1_T5.1 (ssRNA)
RNA: B1 RNA with A25G, U27C, U28G
Kd: 34.4 nM

B41: Ib_S4_P5E.1_K5.1_C5.1_H5.1_[A4C]_A5.1_[A7G]_F5.1_T5.1 (ssRNA)
RNA: B1 RNA with A25G, U27C, A30G
Kd: 112 nM

B42: Ib_S4_P5E.1_K5.1_C5.1_H5.1_[G2T]_A5.1_[T5A]_F5.1_T5.1 (ssRNA)
RNA: B1 RNA with A25U, U27A, U28A
Kd: > 2300 nM

UCUCUUUGUAGUGUUCUCUU (ssRNA) [Ic_S1_P3E.1_K3.1_C3.1_H3.1_A3.1_[T5G]_[A6T]_F3.1_[T7G]_[A8T]_T3.1]
Kd: 659 nM

UCUCUUUGUAGCAAUCUCUU (ssRNA) [Ic_S1_P3E.1_K3.1_C3.1_H3.1_A3.1_[T5G]_[A6C]_F3.1_[T7A]_T3.1]
Kd: 1060 nM

UCUCUUUGUAGCCAUCUCUU (ssRNA) [Ic_S1_P3E.1_K3.1_C3.1_H3.1_A3.1_[T5G]_[A6C]_F3.1_[T7C]_T3.1]
Kd: 1850 nM

UCUCUUUGUAGCAUUCUCUU (ssRNA) [Ic_S1_P3E.1_K3.1_C3.1_H3.1_A3.1_[T5G]_[A6C]_F3.1_[T7A]_[A8T]_T3.1]
Kd: 42.4 nM

UCUCUUUGUUUAUAUCUCUU (ssRNA) [Ia_S1_P3E.1_K3.1_C3.1_H3.1_[A4T]_A3.1_F3.1_T3.1]
Kd: 478 nM

UCUCUUUGUAGCAGUCUCUU (ssRNA) [Ic_S1_P3E.1_K3.1_C3.1_H3.1_A3.1_[T5G]_[A6C]_F3.1_[T7A]_[A8G]_T3.1]
Kd: 1740 nM

UCUCUUUGUAGCCGUCUCUU (ssRNA) [Ic_S1_P3E.1_K3.1_C3.1_H3.1_A3.1_[T5G]_[A6C]_F3.1_[T7C]_[A8G]_T3.1]
Kd: > 2300 nM

UCUCUUUGUAGUGCUCUCUU (ssRNA) [Ic_S1_P3E.1_K3.1_C3.1_H3.1_A3.1_[T5G]_[A6T]_F3.1_[T7G]_[A8C]_T3.1]
Kd: > 2300 nM

B43: Ia_S4_P4E.1_K4.1_C4.1_H4.1_A4.1_[A6T]_F4.1_T4.1 (ssRNA)
RNA: UUUGACAACUGAUCGUUCUUUCUUGUAUUUUAUUCUUUCUCGAUCAGUUGUCUUU
Kd: 1.24 nM

B44: Ia_S4_P4E.1_K4.1_C4.1_H4.1_A4.1_[T7C]_F4.1_T4.1 (ssRNA)
RNA: B43 RNA with U29A, U30C
Kd: 0.515 nM

B45: Ic_S4_P4E.1_K4.1_C4.1_H4.1_A4.1_[T7G]_F4.1_T4.1 (ssRNA)
RNA: B43 RNA with U29A, U30G
Kd: 1.66 nM

B46: Ia_S4_P4E.1_K4.1_C4.1_H4.1_A4.1_[T7A]_F4.1_T4.1 (ssRNA)
RNA: B43 RNA with U29A, U30A
Kd: 1.23 nM

UCUCUUUGUAGCUCUCUCUU (ssRNA) [Ic_S1_P3E.1_K3.1_C3.1_H3.1_A3.1_[T5G]_[A6C]_F3.1_[A8C]_T3.1]
Kd: > 2300 nM

UCUCUUUGUAGCUGUCUCUU (ssRNA) [Ic_S1_P3E.1_K3.1_C3.1_H3.1_A3.1_[T5G]_[A6C]_F3.1_[A8G]_T3.1]
Kd: 864 nM

UCUCUUUGUAGCUUUCUCUU (ssRNA) [Ic_S1_P3E.1_K3.1_C3.1_H3.1_A3.1_[T5G]_[A6C]_F3.1_[A8T]_T3.1]
Kd: 296 nM

UCUCUUUGUAGCGUUCUCUU (ssRNA) [Ic_S1_P3E.1_K3.1_C3.1_H3.1_A3.1_[T5G]_[A6C]_F3.1_[T7G]_[A8T]_T3.1]
Kd: 1510 nM

— article PMC9352680, “A comprehensive thermodynamic model for RNA binding by the Saccharomyces cerevisiae Pumilio protein PUF4”
